Results taken from patent publication US20180162932A1 (ACADEMISCH MEDISCH CENTRUM, published 2018).
Where “and” joins values, the source holds several entries; their conditions need not be identical. Identical values can stand only once. Blank lines part the entries; values can stand above or below the molecule they belong to.

B1: mouse Noggin (other, UniProt P97466 28-232, looked up)
chain: QHYLHIRPAPSDNLPLVDLIEHPDPIFDPKEKDLNETLLRSLLGGHYDPGFMATSPPEDRPGGGGGPAGGAEDLAELDQLLRQRPSGAMPSEIKGLEFSEGLAQGKKQRLSKKLRRKLQMWLWSQTFCPVLYAWNDLGSRFWPRYVKVGSCFSKRSCSVPEGMVCKPSKSVHLTVLRWRCQRRGGQRCGWIPIQYPIISECKCSC
B4: human mature bone morphogenic protein 4 (ligand)
chain: KHHSQRARKKNKNCRRHSLYVDFSDVGWNDWIVAPPGYQAFYCHGDCPFPLADHLNSTNHAIVQTLVNSVNSSIPKACCVPTELSAISMLYLDEYDKVVLKNYQEMVVEGCGCR
notes: Recombinant, R&D Systems (314-BP-020); mature active dimer; also called BMP4; BMP-4

Columns and labels:
[1] = molecular target: T1, mature bone morphogenic protein 2 (human, UniProt P12643 283-396); test: cell-based or functional assay
T1 sequence (P12643 283-396): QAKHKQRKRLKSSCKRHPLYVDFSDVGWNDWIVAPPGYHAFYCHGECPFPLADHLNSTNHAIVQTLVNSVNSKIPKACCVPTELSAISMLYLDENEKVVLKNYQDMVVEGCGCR

[2] = molecular target: B4; test: cell-based or functional assay
[3] = molecular target: T2, human mature bone morphogenic protein 6 (human, UniProt P22004 375-513); test: SPR, VHH on chip, BMP injected
T2 construct: also called BMP6; BMP-6
T2 sequence: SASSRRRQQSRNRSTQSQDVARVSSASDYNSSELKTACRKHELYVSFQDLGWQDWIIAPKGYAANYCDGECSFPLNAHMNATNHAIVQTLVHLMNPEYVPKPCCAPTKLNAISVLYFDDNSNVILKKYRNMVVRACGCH
Procedure: (§1) Serial dilutions (2.0-10 μg/ml) of purified VHHs were spotted on an amine-specific SensEye gold-film gel-type SPRchip (Ssens), using a Continuous Flow Microspotter (Wasatch Microfluidics, Salt Lake City, Utah, United States) as described (Lokate et al., 2007). BMP binding was analyzed on an IBIS MX96 (IBIS Technologies, Enschede, The Netherlands) instrument by performing injections with dilution series (0.05-2.0 μg/ml) of recombinant BMPs on the VHH-coated chip. In each injection, BMPs were injected and incubated for 8 min, followed by 15 min thorough washing with binding buffer (PBS+0.05% Tween20+0.05% sodium azide) to measure dissociation. Epitope binning was done by injecting VHH dilutions (2.0 μg/ml) over the chip, immediately after the dissociation step. Injections with blank binding buffer were used as reference. After each concatenated injection, the chip was regenerated with 10mM glycine-HCl, pH 2.0. Experimental data were processed with SPRintX software (IBIS Technologies) and kinetic parameters were determined using Scrubber2 software (BioLogic Software, Campbell, ACT, Australia). Binding constants were obtained by global fitting to a one-site binding model.

[4] = molecular target: T3, human mature bone morphogenic protein 5 (human, UniProt P22003 340-454); test: SPR, VHH on chip, BMP injected
T3 construct: Often printed as BMPS in the text; also called BMP5; BMPS (so in the source)
T3 sequence: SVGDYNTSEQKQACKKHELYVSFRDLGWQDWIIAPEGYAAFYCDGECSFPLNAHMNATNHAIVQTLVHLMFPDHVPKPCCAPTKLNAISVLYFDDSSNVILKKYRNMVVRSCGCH
Procedure: as §1

[5] = molecular target: T4, human mature bone morphogenic protein 7 (human, UniProt P18075 293-431); test: SPR, VHH on chip, BMP injected
T4 construct: also called BMP7; BMP-7
T4 sequence: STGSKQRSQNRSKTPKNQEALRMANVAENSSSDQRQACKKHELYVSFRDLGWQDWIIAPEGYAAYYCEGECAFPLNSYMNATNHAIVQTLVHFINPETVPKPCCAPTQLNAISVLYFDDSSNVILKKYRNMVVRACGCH
Procedure: as §1

[6] = molecular target: T1, mature bone morphogenic protein 2; test: SPR (IBIS), VHH spotted on the chip, BMP2 injected
Procedure: (§2) In a first set of experiments, controls and VHHs (either as monomers or dimers) were coupled to SPR chips and the measurement of BMP affinities was obtained by injecting the different BMPs to the plate.
as §1

[7] = molecular target: T2, human mature bone morphogenic protein 6; test: summary of SPR results
mouse Noggin = molecular target: B1; test: SPR (IBIS MX96), VHH or control on chip, BMP injected
Procedure: as §2, §1

[8] = molecular target: B4; test: titration ELISA of purified VHH on immobilized BMP4
[9] = molecular target: B4; test: SPR, ratio of KD values
Procedure: as §2, §1

[10] = molecular target: T3, human mature bone morphogenic protein 5; test: western blot of unreduced recombinant BMP, C4C4 as primary antibody
Procedure: To determine the different forms of BMP4, recombinant proteins and carcinoma cell lines lysate were used. Protein concentrations of cell lysates were determined using Pierce™ BCA Protein Assay Kit (Pierce Biotechnology, Rockford, Ill. USA), following the manufacturer's protocol. Equal amount of sample were loaded (between 8 and 30 μg/lane) on a 10% SDS-polyacrylamide gel and subsequently blotted onto PVDF transfer membranes. The membranes were blocked with blocking solution (5% Nonfatmilk+Tris-Buffered Saline with Tween®-20 (TBST) or 5% bovine serum albumin (BSA)+TBST) and subsequently incubated with the appropriate primary antibody and secondary antibody. Afterwards, membranes were washed and incubate with chemiluminescent solution (Pierce™ ECL subtract, Pierce Biotechnology, Rockford, Ill. USA) and visualized using ImageQuant LAS 4000 (GE Healthcare Life Science). […] Secondary antibodies include: HRP-anti-rabbit (1:200; Cat. No. P0448; Dako), HRP-anti-mouse (1:2000; Cat. No. P0447; Dako) and HRP-anti-llama (1:1000; Cat. No. ab112786; Abcam).

[11] = molecular target: B4; test: SPR (IBIS MX96), VHH or control on chip, BMP injected
Procedure: as §2, §1

IC50, BRE-luciferase, C2C12 cells [1]: 1.6 nM
IC50, BRE-luciferase, C2C12 cells [2]: 0.54 nM
Molecule: human Noggin (from UniProt Q13253 28-232)

percent inhibition of the BMP4-specific signal at 100 ng/ml, BRE-luciferase, C2C12 cells [2]: 30%
Molecule: anti-BMP4 R&D (Clone 66119, Mouse IgG2B, MAB757) (antibody)

Molecule: B1
IC50, BRE-luciferase, C2C12 cells [1]: ~2.5 nM
IC50, BRE-luciferase, C2C12 cells [2]: ~0.615 nM

binding result [3]: no binding
binding result [4]: no binding
binding result [5]: no binding
binding result [6]: binds
B2: VHH C8 (VHH)
VHH: EVQLVESGGGLVQAGGSLRLSCAASGRTFRINDMGWYRQAPGKSRDMVARITSGGNTNYADSVKGRFTISRDNAKNTVYLQMNSLKPEDTAVYYCNADGLRFDSTRYRPFDSWGQGTQVTVSS
notes: also called C8 monomer

binding result [7]: binds
B3: VHH E7 (VHH)
VHH: EVQLVESGGGLVQAGGSLRLSCAASGSIRGFVAMAWYRQAPGKQREWVATVTNGGTLYGDSVKGRFTGSRDNAKNTVYLQMNSLKPEDTAVYYCALRQIGASGYDYWGQGTQVTVSS
notes: also called E7 monomer

Molecule: B4
Kd (mouse Noggin): 0.091 nM

EC50 (read off the curve) [8]: ~3 nM
B5: VHH C4 (VHH)
VHH: EVQLVESGGGLVQAGGSLRLSCAASGRTFSTYAMGWFRQAPGKEREFVAAISKGGGITYYSDSVRGRFTISKENAKNTVYLQMNSLKPEDTAVYYCAADPVSSVAKSPVAYPYWGQGTQVTVSS
notes: Produced in E. coli periplasm with tags (anti-myc detection, TALON purification); also called C4 monomer; C4 monohead

IC50, BRE-luciferase, C2C12 cells [1]: 1.21 nM
IC50, BRE-luciferase, C2C12 cells [2]: ~0.45 nM
fold potency on BMP4 against BMP2, BRE-luciferase, C2C12 cells [2]: 16 fold
B6: C8C8 homo-bihead (designed binder)
chain: EVQLVESGGGLVQAGGSLRLSCAASGRTFRINDMGWYRQAPGKSRDMVARITSGGNTNYADSVKGRFTISRDNAKNTVYLQMNSLKPEDTAVYYCNADGLRFDSTRYRPFDSWGQGTQVTVSSGGGGSGGGGSEVQLVESGGGLVQAGGSLRLSCAASGRTFRINDMGWYRQAPGKSRDMVARITSGGNTNYADSVKGRFTISRDNAKNTVYLQMNSLKPEDTAVYYCNADGLRFDSTRYRPFDSWGQGTQVTVSS

fold higher affinity than BMPR1a [9]: 70 fold
fold higher affinity than Noggin [9]: 10 fold
Kd [11]: 0.0097 nM
IC50, BRE-luciferase, C2C12 cells [2]: ~600 pM and 1.3 ng/ml and 45 nM
fold increase in inhibition against monomer C4, BRE-luciferase, C2C12 cells [2]: 9 fold
B7: C4C4 homo-bihead (designed binder)
chain: EVQLVESGGGLVQAGGSLRLSCAASGRTFSTYAMGWFRQAPGKEREFVAAISKGGGITYYSDSVRGRFTISKENAKNTVYLQMNSLKPEDTAVYYCAADPVSSVAKSPVAYPYWGQGTQVTVSSGGGGSGGGGSEVQLVESGGGLVQAGGSLRLSCAASGRTFSTYAMGWFRQAPGKEREFVAAISKGGGITYYSDSVRGRFTISKENAKNTVYLQMNSLKPEDTAVYYCAADPVSSVAKSPVAYPYWGQGTQVTVSS
notes: also called C4C4 dimer
binding result [10]: no binding (tested: 0.1 µg/ml primary antibody)
